No end group written: not given here. *: point of attachment. Myristoyl = CCCCCCCCCCCCCC(=O)*
Biological target: IRK (IR β-chain) immunoprecipitated from HEK cell lysates (UniProt P06213 763-1382, limits assumed)
Assay: cell-based or functional assay

Chain of IRK (IR β-chain) immunoprecipitated from HEK cell lysates (P06213 763-1382 limits assumed): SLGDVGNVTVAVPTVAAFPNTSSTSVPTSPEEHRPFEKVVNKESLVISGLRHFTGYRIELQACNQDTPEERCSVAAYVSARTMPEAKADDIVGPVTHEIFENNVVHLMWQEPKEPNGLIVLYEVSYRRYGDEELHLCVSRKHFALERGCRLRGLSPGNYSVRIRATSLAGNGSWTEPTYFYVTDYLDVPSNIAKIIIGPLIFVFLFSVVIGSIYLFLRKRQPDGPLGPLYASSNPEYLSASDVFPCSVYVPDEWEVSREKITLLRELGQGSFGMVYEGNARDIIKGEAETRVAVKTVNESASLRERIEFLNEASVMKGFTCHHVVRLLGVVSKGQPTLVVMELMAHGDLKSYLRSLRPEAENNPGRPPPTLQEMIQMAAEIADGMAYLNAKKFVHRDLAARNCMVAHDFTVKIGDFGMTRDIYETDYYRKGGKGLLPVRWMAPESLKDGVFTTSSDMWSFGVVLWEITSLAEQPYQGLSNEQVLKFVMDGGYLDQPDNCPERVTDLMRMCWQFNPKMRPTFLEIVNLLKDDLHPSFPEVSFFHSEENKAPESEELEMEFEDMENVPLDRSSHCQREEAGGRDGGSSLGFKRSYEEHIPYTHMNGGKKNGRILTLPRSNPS

B1: P2, myr-KYCCSRK (hBVR-based peptide) (peptide)
peptide: Myristoyl-KYCCSRK
modifications: cysteine pairing not given here
kinase activity of IRK immunoprecipitated from HEK cells treated with 40 µM myristoylated peptide for 15 minutes, IRS peptide substrate: ~3 fold
